Columns and labels:
Assay in all cases: IEDB peptide-MHC binding, purified MHC/competitive/radioactivity; filed as Kd, often an IC50 or EC50 that approximates it; ≥ and ≤ were set here for values at or beyond the usual limits of such assays
Conditions in all cases: source organism: Severe acute respiratory syndrome coronavirus 2
[1] = target: HLA-A*26:01
[2] = target: HLA-B*15:01
[3] = target: HLA-B*18:01
[4] = target: HLA-B*44:02
[5] = target: HLA-B*44:03
[6] = target: HLA-A*02:01
[7] = target: HLA-A*01:01
[8] = target: HLA-B*07:02
[9] = target: HLA-B*51:01

Sequence: EEFEPSTQYEY
- Kd [1]: 18800 nM
- Kd [2]: 78 nM
- Kd [3]: 1.1 nM
- Kd [4]: 50 nM
- Kd [5]: 0.41 nM

Sequence: SLEDKAFQL
- Kd [6]: 20 nM
- Kd [2]: 1580 nM

Sequence: STSAFVETV
- Kd [7]: 12700 nM
- Kd [6]: 26 nM
- Kd [1]: 12100 nM
- Kd [8]: 8860 nM
- Kd [2]: 10400 nM

Sequence: DEFVVVTV
- Kd [6]: 13000 nM
- Kd [1]: 9550 nM
- Kd [8]: ≥ 52800 nM
- Kd [2]: 2050 nM
- Kd [3]: 0.5 nM
- Kd [4]: 2800 nM
- Kd [5]: 1280 nM
- Kd [9]: 12800 nM

Sequence: APRITFGGP
- Kd [6]: 893 nM
- Kd [8]: 59 nM

Sequence: FGDDTVIEV
- Kd [2]: 2380 nM
- Kd [9]: ≥ 45700 nM

Sequence: LEDKAFQL
- Kd [6]: 3890 nM
- Kd [2]: 14700 nM
- Kd [3]: 35 nM
- Kd [4]: ≥ 35400 nM
- Kd [5]: 208 nM

Sequence: KRVDWTIEY
- Kd [2]: 356 nM
- Kd [9]: ≥ 22700 nM

Sequence: ELPDEFVVV
- Kd [6]: 460 nM
- Kd [1]: 6860 nM

Sequence: HADQLTPTW
- Kd [2]: 13400 nM
- Kd [3]: 3350 nM
- Kd [4]: 5260 nM
- Kd [5]: 1800 nM

Sequence: VATSRTLSY
- Kd [7]: 18800 nM
- Kd [1]: 11800 nM
- Kd [2]: 267 nM

Sequence: KNIDGYFKIY
- Kd [6]: 11800 nM
- Kd [2]: 1450 nM

Sequence: NATNVVIKV
- Kd [1]: ≥ 43400 nM
- Kd [5]: 8110 nM
- Kd [9]: 536 nM

Sequence: EIKESVQTF
- Kd [1]: 7.8 nM
- Kd [2]: 4930 nM
- Kd [4]: ≥ 37200 nM

Sequence: VGYLQPRTF
- Kd [2]: 777 nM
- Kd [3]: 707 nM

Sequence: APHGHVMVEL
- Kd [8]: 6.1 nM

Sequence: FASEAARVV
- Kd [6]: 495 nM
- Kd [1]: 734 nM
- Kd [8]: 8550 nM
- Kd [2]: 2550 nM
- Kd [3]: ≥ 49500 nM
- Kd [9]: 207 nM

Sequence: ELPDEFVVVTV
- Kd [6]: 1.6 nM
- Kd [1]: 72 nM
- Kd [2]: ≥ 35100 nM
- Kd [3]: 1130 nM

— the Immune Epitope Database (IEDB)
